The conditions of this data set: Escherichia coli (strain K12), pH 7, CD, Potassium phosphate 10 mM, reversible: yes.

For the substance “Phosphocarrier protein HPr wild type, P0AA04”, for the setting “25 °C, Urea”, the denaturant m value stood at 1.06 kcal/mol/M and the “denaturant midpoint (higher = more stable)” value was found to be 4.34 M. Under “Thermal”, the Tm (commonly the temperature at the midpoint of the melting transition) came out at 63.4 °C and the “unfolding enthalpy (van 't Hoff)” value was 75.8 kcal/mol.

The values above are taken from FireProtDB (doi:10.1016/s0022-2836(02)00630-7).
